According to the supplement of paper PMC9170038:

Test system: MS2 coat protein
Assay: apparent KD of MS2 coat protein; designed switch direction (-1 OFF switch, 1 ON switch): -1; higher = weaker reporter binding
How it was run: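 Stalled E. coli RNA polymerase transcribed designed RNA switches on Illumina chips, which were then titrated with SNAP-549-labelled MS2 coat protein, doubling from 0.7 or 1.5 nM to 3 µM. Steps lasted from 0.8–1.5 h at the lowest concentration to 10–20 min at the highest. The apparent KD is each design's median over clusters of curve-fitted normalised fluorescence.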

[1] = input ligand: microRNA oligo, concentration not stated
[2] = Eterna round: R95, input ligand: FMN 200 uM
[3] = Eterna round: R95, input ligand: microRNA oligo, concentration not stated
[4] = Eterna round: R95, input ligand: none

Sequence	apparent KD of MS2 coat protein (input ligand: FMN 200 uM)	apparent KD of MS2 coat protein [1]	apparent KD of MS2 coat protein (input ligand: none)	apparent KD of MS2 coat protein [2]	apparent KD of MS2 coat protein [3]	apparent KD of MS2 coat protein [4]
AAAAUACGCACAGGAUAUCGAUACAUGAGGAUCACCCAUGUAACAUGGACUGGUCAGCAGAAAAGCGAGAAGGGUGCUGACGAC [Lediaroren] (Eterna round: R96, puzzle: Exclusion NG 2)	334 nM	90.3 nM	55.6 nM			
AAAAUGUAAGGAUAUCGUUCACUUGACAAAAGUCAAGUGAACGAGAAGGUACAUGAGGAUCACCCAUGUAUGGG [-29.9, -29 kcal, A 38%] (Eterna round: R97, puzzle: Exclusion 4)	131 nM		1340 nM			
AAAAUGUCAGGAUAUGUGAAAGAAAAGAAAAGAAAAGAAAAACAGAAGGGACAUGAGGAUCACCCAUGUAAGAA [Exclusion 4 #3] (puzzle: Exclusion 4)				21.6 nM	25.2 nM	27.1 nM
AAACAAGCGUGAGGCUCGUCUUAAAAAGCCUCAUGAAAAACAUGAGGAUCACCCAUGUAAAAUGAUCGAAAGAUCAA [JL turnoff v2 29] (Eterna round: R96, puzzle: Sensor v2, turn-off variant 2)	15.5 nM	43.4 nM	17.6 nM			
AAACAAGCGUGAGGCUCGUCUUAAAAAGCUUCAUGAAAAACAUGAGGAUCACCCAUGUAAAAUGAUCGAAAGAUCAA [JL turnoff v2 28] (Eterna round: R96, puzzle: Sensor v2, turn-off variant 2)	15.4 nM	34.2 nM	18.2 nM			
AAACACCAAGGAUAUACAUGAGGAUCACCCAUGUGGUCCGGCACGGGUCUCGAUUCGAGUAGAAGGUGGAUGGG [Eternabot (L1) Solution 80] (Eterna round: R97, puzzle: Exclusion 3)	56.7 nM		76.5 nM			
AAACAGGAAGGAUAUACAUGAGGAUCACCCAUGUAGGAAAACCUACCAAAAGACCCAAGUAGAAGGUCCGAAAA [jl-ex3-4.64 ViennaUCT mod] (Eterna round: R97, puzzle: Exclusion 3)	25.8 nM		15.3 nM			
AAACAGGGAGGAUAUACAUAGAUCGUCUAACCUAAUUGGUCACAUGAGGAUCACCCAUGUAGAAGGCCCUUAGG [Tiisdixe] (puzzle: Exclusion 2)					22.2 nM	
AAACCCUGAGGAUAUACAUAACAACAAAGCCUCACAUGCCAACAUGAGGAUCACCCAUGUAGAAGGCAGGCCAA [Mod R3 Insanara 13 - Jieux - Exclusion 2] (Eterna round: R97, puzzle: Exclusion 2)	19.2 nM		10.1 nM			
AAACCUUGAGGAUAUACAUAACAACAAAGCCUCACGUGCCAACAUGAGGAUCACCCAUGUAGAAGGCAGGCCAA [Mod R3 Insanara 11 - Jieux - Exclusion 2] (Eterna round: R97, puzzle: Exclusion 2)	15.6 nM		12.7 nM			
AAACGGAUAGGAUAUACUUGAGGAUCACCCAAGUGAUCAGUCCCGGGAAUUCCCGCAAGUAGAAGGAUCAAAAG [Arisrevexe] (Eterna round: R97, puzzle: Exclusion 3)	1120 nM		162 nM			
AAACGGCAGGGAGGAUAUGCCUACCUGGGUCGUCUUCAAACAUGAGGAUCACCCAUGUAGUCGACGCAGAAGGCCCUCAAAGCC [Ontiis] (Eterna round: R96, puzzle: Exclusion NG 2)	38.7 nM	8.22 nM	12.7 nM			
AAACGUAGACAGGAUAUCUGCGCCCUUGGUUAAAGAGAAGGGUCUACAUGAGGAUCACCCAUGUGGUGUAACUC [Dibedididi] (puzzle: Exclusion 6)				13.8 nM	18.4 nM	23.6 nM
AAACUCCCAACCACCGGGAACAUGAGGAUCACCCAUGUGGCGUGACUCAUACGGGCUUUUUGUUCGUUUUAUUCACG [Soesesqu] (puzzle: Sensor v3, turn-off variant 1)				69 nM	20.1 nM	72.5 nM
AAAGAACAUGAGGAUCACCCAUGUGAGGAUAUGCGAAAACCGCUGGCGCACCAGACGGGCAGAAGGCAUAUGGU [Aonustiri] (puzzle: Exclusion 1)					48.9 nM	
AAAGAAGAGAGAAAAUAACACAUGAGGAUCACCCAUGUGAGAUGUUGAGGGUGAUACAGGCUUUUUGCUCGUCUUAU (puzzle: Sensor v3, turn-off variant 1)				231 nM	283 nM	321 nM
AAAGAAGAGAGAAAAUAACACAUGAGGAUCACCCAUGUGCGAUGUUGAGGGUGAUACAGGCUUUUUGCUCGUCUUAU (puzzle: Sensor v3, turn-off variant 1)				311 nM	512 nM	199 nM

Sequence	apparent KD of MS2 coat protein (input ligand: FMN 200 uM)	apparent KD of MS2 coat protein [1]	apparent KD of MS2 coat protein (input ligand: none)	apparent KD of MS2 coat protein [2]	apparent KD of MS2 coat protein [3]	apparent KD of MS2 coat protein [4]
AAAGACAUGAGGAUCACCCAUGUACUGGUGGAGCUCGUGAGGCAGGAUAUCGCGUGCGAAGCUCGCGAGAAGGGCCAGGAAUUU [Cexela] (Eterna round: R96, puzzle: Exclusion NG 3)	416 nM	98.2 nM	109 nM			
AAAGAGCAAGGAUAUACAUGAGGAUCACCCAUGUAGUACGUGAACCAGGUUUUCCUGAGUAGAAGGUGCAGACA [Dibira] (puzzle: Exclusion 3)					28.1 nM	
AAAGCGUCAGGAUAUCCAAUAUAUGACAUGAGGAUCACCCAUGUUUCCACUCGUACCUCCGGAGAAGGGACAAAUA [Ex5 #86] (Eterna round: R97, puzzle: Exclusion 5)	32.5 nM		38.1 nM			
AAAUAACCUCUAGGAUAUGUGUACGUAUAGUGCGCAGAAGGAGACAUGAGGAUCACCCAUGUACACACACAACAAACGACCACC (Eterna round: R96, puzzle: Exclusion NG 1)	26.1 nM	27.3 nM	30.4 nM			
AAAUAAUGAGGAUAUACAGUGUAAAACAUGAGGAUCACCCAUGUUCUUCAAUUAGUAUUUGUAGAAGGCAUAGGUA [JR_Ex5_Sub094] (Eterna round: R97, puzzle: Exclusion 5)	38.5 nM		60.7 nM			
AAAUACAAGCAGAGAUCCUACAUGAGGAUCACCCAUGUGCUCGUCUUAUAAAGUACUAUCACGAAAGUGAUAGUACA [Sensor 3, v1 - 17] (puzzle: Sensor v3, turn-off variant 1)				184 nM	41.8 nM	218 nM
AAAUACAAGUAAAGAUCCUACAUGAGGAUCACCCAUGUGCUCGUCUUGUAAAGUACUAUCACGAAAGUGAUAGUACA [Sensor 3, v1 - 22] (puzzle: Sensor v3, turn-off variant 1)				45.7 nM	31.5 nM	51 nM
AAAUACAAGUAAAGAUUCUACAUGAGGAUCACCCAUGUGCUCGUCUUAUAAAGUACUAUCACGAAAGUGAUAGUACA [Sensor 3, v1 - 26] (puzzle: Sensor v3, turn-off variant 1)				17 nM	188 nM	15 nM
AAAUACAAGUAGAGAUUCUACAUGAGGAUCACCCAUGUGCUCGUCUUAUAAAGUACUAUCACGAAAGUGAUAGUACA [Sensor 3, v1 - 37] (puzzle: Sensor v3, turn-off variant 1)				14.2 nM	211 nM	14.1 nM
AAAUAGCAUGAGGAUAUUGAACUGUAUAUAGUACGAGAAGGCAUGACAUGAGGAUCACCCAUGUUUUGUUGGGA [EX6 #3] (Eterna round: R97, puzzle: Exclusion 6)	114 nM		33.2 nM			
AAAUAGCUAGAGGAUAUCGGAUAGAAUUUAUUACGAGAAGGUUAGACAUGAGGAUCACCCAUGUUCUGUUGGGA [EX6 #22] (Eterna round: R97, puzzle: Exclusion 6)	70 nM		33.8 nM			
AAAUAGGGAGGAUAUCCAAUAUAUGACAUGAGGAUCACCCAUGUUUCCACUCGUACCUCCGGAGAAGGCCCAUAAA [Ex5 #3] (Eterna round: R97, puzzle: Exclusion 5)	20.9 nM		21.8 nM			
AAAUCGGUAGAGGAUAUUGUACAGGAAACGGUGCAAGAAGGUUACACAUGAGGAUCACCCAUGUUAAAUUGCGA [EX6 #52] (Eterna round: R97, puzzle: Exclusion 6)	21.4 nM		17.3 nM			
AAAUCUCACGUAAGGAUAUCCUGGGCAACGUCCACGGAGAAGGUACAUGAGGAUCACCCAUGUGCUCGCUAUAC [BmEX4 C.1] (Eterna round: R97, puzzle: Brourd's mod of Exclusion 4)	25.2 nM		19.7 nM			
AAAUCUGAGAAGGAUAUGGUACAGGAAAUGGUGCCAGAAGGUUUCACAUGAGGAUCACCCAUGUCGAAUAGUGA [EX6 #65] (Eterna round: R97, puzzle: Exclusion 6)	29.6 nM		19.3 nM			
AAAUGCAAGUAAAGAUUCUACAUGAGGAUCACCCAUGUGCUCGUCUUAUAAAGUACUAUCACGAAAGUGAUAGUACA [Sensor 3, v1 - 35] (puzzle: Sensor v3, turn-off variant 1)				14.2 nM	100 nM	14.2 nM
AAAUUAAGUGUGAGGAUAUGCUGGUCCAUAGAUCAGCAGAAGGCACAUGAGGAUCACCCAUGUAAUAUAUUUAA [Mat - Exclusion 4 - JL Mod - D51] (puzzle: Brourd's mod of Exclusion 4)				134 nM	29.4 nM	23 nM
